Experiment: yeast display, Sf9 membrane polyspecificity reagent, FACS + sequencing; frameworks hold sequencing errors
Summary of the method: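 Nanobodies from a synthetic yeast display library (Saccharomyces cerevisiae BJ5465), induced 36–48 hours with galactose, were stained 1 hour at 4 °C with 10% biotinylated, detergent-solubilized Sf9 membrane reagent, enriched on streptavidin microbeads, then FACS-sorted. Anti-HA (expression) and streptavidin (reagent binding) fluorescence set low and high (top ~1%) gates. Polyreactivity labels come from the gate of origin. Genes were colony-PCR amplified, MiSeq 2 × 250 sequenced and filtered by CDR length.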

| Sequence | polyreactivity (PSR sort gate) |
| --- | --- |
| QVQLVESGGGLVQSGGSLRLSCAASGSTIFRYAMGWSRQAPGKERELVAAISWSGASTYYADSVKGRFTISRDNAKNPVYLHMNSQKPEDTAVYYCAARSRWYDAAGYPKYYYWGHGTQVTVSS | high polyreactivity |
| QVQLVESGGGLVQAGGSLRLSCAASGSIFDWNAMGWYRKAPGKERELVASITGSGGGTNYADSVKGRFTISRDNAKNTVYLQMNSLKPEDTAVYYCAAEVDYSYWPEYARKYYYWGQGTQVTVSS | low polyreactivity |
| QVQLVESGGGLVQAGGSLRLSCAASGFTFGVYAMGWYRQAPGKERELDAAISTTVGSTYYADSVKGRFTISRDNAKNTVYLQMNSLKPEDTAVYYCAAEYTGYINYYIYEYWGQGTQVTVSS | low polyreactivity |
| QVQLVESGGGLVQAGGSLRLSCAASGFTFGYNAMGWYRQAPGKERELVAAITSGGSTNYADSVKGRFTISRDNAKNTVYLQMNSLKPEDTAVYYCATGVRPWRKKPVEFYHRGQGTQVTVSS | low polyreactivity |
| QVQLVESGGGLDQAGGSLRLICAASVRTFFVNAMGRYRQAPGKERELVATITFSGDSTYYADSVKGRFTISRDNAKNTVYLQMNSLKPADTAVYYCAAYQGQKGYDYWGQGTQVTVSS | high polyreactivity |
| QVQLVESGVGLVQAGGSLRLSCAASGRTFDVYAMGWYRQAPGKERELVAAISRGGSTYYADSVKGRFTISRDNAKNTVYLQMNSLKPEDTAVYYCNKAYSSTRGYGYWGQGTQVTVSS | high polyreactivity |
| QVQLVESGGGLVQAGGSLRLSCAASGSIFVTNAMGWYRQAPGKERELVAAITRGGNTNYADSVKGRFTISRDNAKNTVYLQMNSLKPEDTAVYYCAADTSYYYVYGYFPGYYYWGLGTQVTVSS | low polyreactivity |
| QVQLVESGGGLVQAGGSLRLSCAASGHIFPTNAMGWYRQAPGKERELVAVISESVGSTYYADSVKGRFTISRDNAKNTVYLQMNSLKPEDTAVYYCATQSRYPSLDADYDYWGQGTQVTVSS | low polyreactivity |
| QVQLVESGGGLVQAGGSLRLSCAASGFTFTWYAMGWYRQAPGKERELVAAISSGGGRTYYADSVKGRFTISRDNAKNTVYLQMNSLKPEDTAVYYCNKVSSFGYYYWGQGTQVTVSS | high polyreactivity |
| QVQLVESGGGLVQAGGSLRLSCAASGITFGSYAMGWYRQAPGKERELVAAITSGGGTNYADSVKGRFTISRDNAKNTVYLQMNSLKPEDTAVYYCAARYYYLGTRYGYWGQGTQVTVSS | low polyreactivity |
| QVQLVESCGGLVQAGGSLRLSCAASGYTFGSNAMGWYRQAPGKERELVAAISTNGGRTNYADSVKGRFTISRDNAKNTVYLQMNSLKPEDTAVYYCNTRLRVRYYLSGFDYWGQGTQVTVSS | high polyreactivity |
| QVQLVESGGGLVQAGGSLRLSCAASGSIFSVNAMGWYRQAPGKERELVAAISWRGGSTYYADSVKGRFTISRDNAKNTVYLQMNSLKPEDTAVYYCNAVISVKRSTRYGYWGQGTQVTVSS | low polyreactivity |
| QVQLVESGGGLVQAGGSLRLSCAASGRTFVGYAMGWYRQAPGKERELVASITASGGRTYYADSVKGRFTISRDNAKNTVYLQMNSLKPEDTAVYYCAAYIHWSEDYWGQGTQVTVSS | low polyreactivity |
| QVQLVESGGGLVQAGGSLRLSCAATGFTLTRNAMGWYRQAPGKERELVAAISWSGGTTYYADSVKGRFTISRDNAKNTFYLQMNSLKPEDTAVYYCAALRYKLPLGYWGQGTQVTVSS | high polyreactivity |
| QVQLVESGGGLVQAGGSLRLSCAASGFIMDNYAMGCYRQAHGKERELVAAISGSGGSTYYADSVKGRFTISRDNAKNTVYLQMNSLKPEDTAVYYCNRDRLLRQYDYWGQGTQVTVSS | high polyreactivity |
| QVQLVESGGGLVQAGGSLRLSCAASGITFQRYAMGWYRQAPGKVRELVAAITRRGGSTYYADSVKGRFTISRDNAKNTVYLQMNSLKPEDTAVYYCAADLFFKARGYDYWGQGTQVTVSS | high polyreactivity |

| Sequence | polyreactivity (PSR sort gate) |
| --- | --- |
| QVQLVESGGGLVQAGGSLRLSCAASGSIFRGYTMGWYRQAPGKERELVAAISTRGGSTYYADSVKGRFTISRDNAKNTVYLQMNSLKPEDTAVYYCNARSRGRASGYDYWGQGTQVTVSS | high polyreactivity |
| QVQLVESGGGLVQAGGSLRLSCAASGFIFAANAMGRYRQAPGKEREMVAAISESGGSTYYADSVKGRFTISRDNAKNTVYLQLNSLKPEDTAVYYCNADIVWSPVLGEYYYWGQGTQVTVSS | high polyreactivity |
| QVQLVESGGGLVQAGGSLRLSCAASGRIFYGYAMGWYRQAPGKERELVAAITYSGGITYYADSVKGRFTISRDNAKNTVYLQMNSLKPEDTAVYYCATSKSSVTGPDLDYWGQGTQVTVSS | high polyreactivity |
| QVQLVESVGGLVQAGGSLRLSCAASGSTSRIYAIGRYRKAPGKEREWVAAISRSGGSTYYADSVKGRFTISRDNAKNTVYLQMNSLKPEDTAVYYCAKDASKETSGGDYWGQGTQVTVSS | high polyreactivity |
| QVQLHESGGGLVQAGGSLRLSCAAIGTISYSGPMGWYRQAPGKEREFVAGIGVGSNTNYADSVKGRYTIIRDNAKNTVYLQMNSLKPEDSAVYYCAVGGYAPLGRPYWGQGTQVTVSS | low polyreactivity |
| QFQLVESGGGLVQAGGSLRLSCAASGSTFITNAMGCYRQAPGKERELVASITRGAGSTYYADSVKGRITISRDNAKNTVYLQMNSLKPEDTAVYYCRLAPRYRKGGYWGQGTQVTVSS | high polyreactivity |
| QVQLVESGGGLVQAGGSLRLSCAASGSIFFWNDMGWYRQAPGTERELVAAISWSGGSTSYADSVKGRFTISRDNAKNTVYLQMNSLKPEDTAVYYCAADYYYRTLYGYIGMDYWGQGTQVTVSS | low polyreactivity |
| QVQLVESGGGLVQAGGSLRLSCAASGLTFGTNSMGWYREAPGKEMELVAAISTSSGSTYYADSVKGRFTISRDNAKNTVYLLMNRLKPEDTAVFYCAAVTVTKLSYYRYYYWGQCTQVTVSS | low polyreactivity |
| QVQLVESGGGLVQAGGSLRLSCAASGRIFYIYAMGWSRQAPGKERELVASITSSGTSTYADSVKGRFTISRDNAKNTVYLQMNSLKPEDTAVYYCNARGYPKSWRYSRGYEYWGQGTQVTVSS | low polyreactivity |
| QVQLVESGGGLVQAGGSLRLSCAASGTFTGNAMGSYRQAPGKERELVAAITWSGGRTYYADSVKGRFTISRDNAKNTVYLQMNSLKPEDTAVYYCNAADEYLQERFWSDAFDYWGQGTQVTVSS | high polyreactivity |
| QVQLVESGGGLVQAGGSLRLSCAASGITFDRYAMGWYRQAPGKERELVAAITSGGRTYYADSVKGRFTISRDNAKNTVYLQMNSLKPEDTAVYYCNATRGQYVGRYYYWGQGSQVTVSS | high polyreactivity |
| QVQLVESGGGLVQAGGSLRLSCAASGFTFYNYAMGWFRQATGKERELVAASNSGGSTYYADSVKGRFTSSRDNATNTVYLQMNSLKPEDTAVDYFAARSYYQYRRYYSWGQGTQVTVSS | high polyreactivity |
| QVQLVESGGGLVQAGGSIRLSCAASGFIIKVYAMGWYRQAPGKERELVAAITWSGGSTYYADSVKGRFTISRDNAKNNVYLQMNSLKPEDTAVYYCNTDAYRYPEYDYWGQGTQVTVSS | low polyreactivity |
| QVQLVESGGGLVQAGGSLRLSCAASGRIFESYAMGWYRQAPGKERELVAAISSGGGTTYYADSVKGRFTISRDNAKNTVYLQMNSLKPEDTAVYYCAAGPWFYYWGQGTQVTVSS | low polyreactivity |
| QVQLVESGGGLVQAGGSLRLSCAASGRIFLNYDMGWYRQAPGKERELVADISISGSTDYADSVKGRFTISRDNAKNTVYLQMNSLKPEDTAVYYCATSFYVSDYYVPYEMGYWGQGTQVTVSS | low polyreactivity |
| QVQLVESGGGLVQAGGSLRISCAASGFIFTLYAMGWYRQAPGKERELVAAISKRGGSTNYADSVKGRFTISRDNAKNTVYLLMNSLKPEDTAVYYCANARPGFLYDHWGQGTQLTVSS | high polyreactivity |

— the nanobody polyreactivity screen of Harvey et al. (2022)
